Experimental data taken from US20250074980A1 (BRIGHAM AND WOMEN S HOSPITAL, published 2025).
Like-named read-outs stand apart in the source and are kept apart here.

T1: His-tagged CEACAM1 (human, UniProt P13688 35-428)
T1 construct: 45 kDa SPR analyte; also called CEACAM1-HIS; CEACAM1 analyte
T1 sequence: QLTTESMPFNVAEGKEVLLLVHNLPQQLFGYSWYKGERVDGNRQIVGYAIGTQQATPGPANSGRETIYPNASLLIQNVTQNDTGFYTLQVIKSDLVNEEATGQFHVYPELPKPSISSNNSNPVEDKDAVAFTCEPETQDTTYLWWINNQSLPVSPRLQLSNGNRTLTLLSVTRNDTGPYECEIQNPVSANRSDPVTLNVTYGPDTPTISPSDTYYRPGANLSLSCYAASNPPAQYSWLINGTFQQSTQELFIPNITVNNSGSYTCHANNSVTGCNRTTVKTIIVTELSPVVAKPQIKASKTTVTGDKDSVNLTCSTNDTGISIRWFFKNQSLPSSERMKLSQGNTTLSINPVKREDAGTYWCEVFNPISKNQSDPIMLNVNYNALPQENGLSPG


Columns and labels:
His-tagged CEACAM1 [1] = biological target: T1, His-tagged CEACAM1; assay: SPR single-cycle, supernatant IgG captured
Procedure, shortened: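 His-tagged CEACAM1 served as analyte over Protein A-captured IgG in single-cycle surface plasmon resonance on a Biacore T200, performed at 25° C in HBS-P+ (pH 7.4). The IgG was taken from supernatants of transiently PEI-transfected HEK EBNA cells grown in 6-well plates and harvested 5-7 days later. Relative KD, alongside fitted Kon, koff and Kd, was referenced to the parent antibody run in the same experiment.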

His-tagged CEACAM1 [2] = biological target: T1, His-tagged CEACAM1; assay: SPR single-cycle, supernatant IgG captured; remark: listed apart in the source
Protocol: In order to assess the binding of the humanized, affinity matured reformatted lead IgGs, single-cycle kinetics analysis was performed on crude supernatants using a Biacore T200 running Biacore T200 Control Software V2.0.1 and Biacore T200 Evaluation Software V3.0. Antibodies were diluted in HBS-P+ to a final concentration of 0.5 μg/ml. At the start of each cycle, antibodies were loaded onto Fc2, Fc3 and Fc4 of the Protein A chip. IgGs were captured at a flow rate of 10 μl/min to give an immobilisation level (RL) of ˜100 RU (a level calculated to obtain a Rₘₐₓ of ˜50-150 RU once the analyte is bound). The surface was then allowed to stabilize. Single-cycle kinetics data was obtained with CEACAM1 as the analyte at a flow rate of 80 μl/min to minimize any potential mass transfer effects. Multiple repeats with the parent (VH1/Vκ8 S29A) antibody were performed to check the stability of the surface and analyte over the kinetic cycles. The signal from the reference channel Fc1 (no antibody) was subtracted from that of Fc2, Fc3 and Fc4 to correct for differences in non-specific binding to the reference surface. A three point, two-fold dilution range from 70 nM to 280 nM CEACAM1 without regeneration between each concentration was used. The signal from each antibody blank run (no CEACAM1) was subtracted to correct for differences in surface stability. The association phase for the three injections of increasing concentrations of CEACAM1 was monitored for 80 seconds each time and a single dissociation phase was measured for 150 seconds following the last injection of CEACAM1. Regeneration of the Protein A surface was conducted using two injections of 10 mM glycine-HCL pH 1.5 followed by a stabilization period of 250 seconds.

Binder	Kd (His-tagged CEACAM1 [1]) [nM]	koff (His-tagged CEACAM1 [1]) [s⁻¹]	kon (His-tagged CEACAM1 [1]) [M⁻¹ s⁻¹]	relative KD to parent (His-tagged CEACAM1 [1])	Kd (His-tagged CEACAM1 [2]) [nM]	koff (His-tagged CEACAM1 [2]) [s⁻¹]	kon (His-tagged CEACAM1 [2]) [M⁻¹ s⁻¹]	relative KD to parent (His-tagged CEACAM1 [2])
CP09B03/CP08G09 (antibody, IgG4, V domains shown, IgG4 (S241P), kappa) VH: EVQLLESGGGLVQPGGSLRLSCAASGFTFNAHAISWVRQAPGKGLEWVATISSGGTYTYYPDSVKGRFTISRDNSKNTLYLQMNSLKAEDTAMYYCARHDFDYDAAWFAYWGQGTLVTVSS VL: EIVLTQSPATLSLSPGERATLSCRANSAVSYMYWYQQKPGQAPRPWIYLTSNRATGVPARFSGSGSGTDYTLTISSLEPEDFAVYYCQQWTAFPPTFGQGTKLEIK	300	0.037	130000	1.9	–	–	–	–
CP09C02/CP08G09 (antibody, IgG4, V domains shown, IgG4 (S241P), kappa) VH: EVQLLESGGGLVQPGGSLRLSCAASEFTFSDHAMSWVRQAPGKGLEWVATISSGGTYTYYPDSVKGRFTISRDNSKNTLYLQMNSLKAEDTAMYYCARHGFDYDAAWFAYWGQGTLVTVSS VL: EIVLTQSPATLSLSPGERATLSCRANSAVSYMYWYQQKPGQAPRPWIYLTSNRATGVPARFSGSGSGTDYTLTISSLEPEDFAVYYCQQWTAFPPTFGQGTKLEIK	140	0.018	130000	3.9	–	–	–	–
CP09E05/CP08G09 (antibody, IgG4, V domains shown, IgG4 (S241P), kappa) VH: EVQLLESGGGLVQPGGSLRLSCAASGFIFSSHGMSWVRQAPGKGLEWVATISSGGTYTYYPDSVKGRFTISRDNSKNTLYLQMNSLKAEDTAMYYCARHGFDYDAAWFAYWGQGTLVTVSS VL: EIVLTQSPATLSLSPGERATLSCRANSAVSYMYWYQQKPGQAPRPWIYLTSNRATGVPARFSGSGSGTDYTLTISSLEPEDFAVYYCQQWTAFPPTFGQGTKLEIK	320	0.043	140000	1.8	–	–	–	–
CP09E05/CP08E01 (antibody, IgG4, V domains shown, IgG4 (S241P), kappa) VH: EVQLLESGGGLVQPGGSLRLSCAASGFIFSSHGMSWVRQAPGKGLEWVATISSGGTYTYYPDSVKGRFTISRDNSKNTLYLQMNSLKAEDTAMYYCARHGFDYDAAWFAYWGQGTLVTVSS VL: EIVLTQSPATLSLSPGERATLSCRANSAVSYMYWYQQKPGQAPRPWIYLTSNRATGVPARFSGSGSGTDYTLTISSLEPEDFAVYYCQQWTTFPPTFGQGTKLEIK	320	0.041	130000	1.7	–	–	–	–
CP09E05/CP08F05 (antibody, IgG4, V domains shown, IgG4 (S241P), kappa) VH: EVQLLESGGGLVQPGGSLRLSCAASGFIFSSHGMSWVRQAPGKGLEWVATISSGGTYTYYPDSVKGRFTISRDNSKNTLYLQMNSLKAEDTAMYYCARHGFDYDAAWFAYWGQGTLVTVSS VL: EIVLTQSPATLSLSPGERATLSCRANSAVSYMYWYQQKPGQAPRPWIYLTSNRATGVPARFSGSGSGTDYTLTISSLEPEDFAVYYCQQWTSNPPTFGQGTKLEIK	250	0.034	140000	2.2	–	–	–	–
CP09C02/Vκ8 S29A (antibody, IgG4, V domains shown, IgG4 (S241P), kappa) VH: EVQLLESGGGLVQPGGSLRLSCAASEFTFSDHAMSWVRQAPGKGLEWVATISSGGTYTYYPDSVKGRFTISRDNSKNTLYLQMNSLKAEDTAMYYCARHGFDYDAAWFAYWGQGTLVTVSS VL: EIVLTQSPATLSLSPGERATLSCRANSAVSYMYWYQQKPGQAPRPWIYLTSNRATGVPARFSGSGSGTDYTLTISSLEPEDFAVYYCQQWSSNPPTFGQGTKLEIK	170	0.019	110000	3.3	88	0.017	200000	7.1
CP09B03/Vκ8 S29A (antibody, IgG4, V domains shown, IgG4 (S241P), kappa) VH: EVQLLESGGGLVQPGGSLRLSCAASGFTFNAHAISWVRQAPGKGLEWVATISSGGTYTYYPDSVKGRFTISRDNSKNTLYLQMNSLKAEDTAMYYCARHDFDYDAAWFAYWGQGTLVTVSS VL: EIVLTQSPATLSLSPGERATLSCRANSAVSYMYWYQQKPGQAPRPWIYLTSNRATGVPARFSGSGSGTDYTLTISSLEPEDFAVYYCQQWSSNPPTFGQGTKLEIK	300	0.052	170000	1.8	260	0.039	150000	2.4
VH1/CP08D02 (antibody, IgG4, V domains shown, IgG4 (S241P), kappa; also called Parent VH/CP08D02) VH: EVQLLESGGGLVQPGGSLRLSCAASGFIFSSHGMSWVRQAPGKGLEWVATISSGGTYTYYPDSVKGRFTISRDNSKNTLYLQMNSLKAEDTAMYYCARHDFDYDAAWFAYWGQGTLVTVSS VL: EIVLTQSPATLSLSPGERATLSCRANSAVSYMYWYQQKPGQAPRPWIYLTSNRATGVPARFSGSGSGTDYTLTISSLEPEDFAVYYCQQWTSFPPTFGQGTKLEIK	450	0.057	130000	1.2	100	0.043	430000	6.2

Results, then the binder that gave them:

Kd (His-tagged CEACAM1 [1]) [nM]	koff (His-tagged CEACAM1 [1]) [s⁻¹]	kon (His-tagged CEACAM1 [1]) [M⁻¹ s⁻¹]	relative KD to parent (His-tagged CEACAM1 [1])	Kd (His-tagged CEACAM1 [2]) [nM]	koff (His-tagged CEACAM1 [2]) [s⁻¹]	kon (His-tagged CEACAM1 [2]) [M⁻¹ s⁻¹]	relative KD to parent (His-tagged CEACAM1 [2])	Binder
450	0.053	120000	1.2	170	0.054	330000	3.7	VH1/CP08E01 (antibody, IgG4, V domains shown, IgG4 (S241P), kappa; also called Parent VH/CP08E01) VH: EVQLLESGGGLVQPGGSLRLSCAASGFIFSSHGMSWVRQAPGKGLEWVATISSGGTYTYYPDSVKGRFTISRDNSKNTLYLQMNSLKAEDTAMYYCARHDFDYDAAWFAYWGQGTLVTVSS VL: EIVLTQSPATLSLSPGERATLSCRANSAVSYMYWYQQKPGQAPRPWIYLTSNRATGVPARFSGSGSGTDYTLTISSLEPEDFAVYYCQQWTTFPPTFGQGTKLEIK
300	0.035	120000	1.8	320	0.037	120000	1.4	CP09E05/Vκ8 S29A (antibody, IgG4, V domains shown, IgG4 (S241P), kappa) VH: EVQLLESGGGLVQPGGSLRLSCAASGFIFSSHGMSWVRQAPGKGLEWVATISSGGTYTYYPDSVKGRFTISRDNSKNTLYLQMNSLKAEDTAMYYCARHGFDYDAAWFAYWGQGTLVTVSS VL: EIVLTQSPATLSLSPGERATLSCRANSAVSYMYWYQQKPGQAPRPWIYLTSNRATGVPARFSGSGSGTDYTLTISSLEPEDFAVYYCQQWSSNPPTFGQGTKLEIK
140	0.02	140000	3.9	–	–	–	–	CP09C02/CP08E01 (antibody, IgG4, V domains shown, IgG4 (S241P), kappa) VH: EVQLLESGGGLVQPGGSLRLSCAASEFTFSDHAMSWVRQAPGKGLEWVATISSGGTYTYYPDSVKGRFTISRDNSKNTLYLQMNSLKAEDTAMYYCARHGFDYDAAWFAYWGQGTLVTVSS VL: EIVLTQSPATLSLSPGERATLSCRANSAVSYMYWYQQKPGQAPRPWIYLTSNRATGVPARFSGSGSGTDYTLTISSLEPEDFAVYYCQQWTTFPPTFGQGTKLEIK
330	0.074	230000	1.7	–	–	–	–	CP09E05/CP08D02 (antibody, IgG4, V domains shown, IgG4 (S241P), kappa) VH: EVQLLESGGGLVQPGGSLRLSCAASGFIFSSHGMSWVRQAPGKGLEWVATISSGGTYTYYPDSVKGRFTISRDNSKNTLYLQMNSLKAEDTAMYYCARHGFDYDAAWFAYWGQGTLVTVSS VL: EIVLTQSPATLSLSPGERATLSCRANSAVSYMYWYQQKPGQAPRPWIYLTSNRATGVPARFSGSGSGTDYTLTISSLEPEDFAVYYCQQWTSFPPTFGQGTKLEIK
140	0.022	160000	4	–	–	–	–	CP09C02/CP08D02 (antibody, IgG4, V domains shown, IgG4 (S241P), kappa) VH: EVQLLESGGGLVQPGGSLRLSCAASEFTFSDHAMSWVRQAPGKGLEWVATISSGGTYTYYPDSVKGRFTISRDNSKNTLYLQMNSLKAEDTAMYYCARHGFDYDAAWFAYWGQGTLVTVSS VL: EIVLTQSPATLSLSPGERATLSCRANSAVSYMYWYQQKPGQAPRPWIYLTSNRATGVPARFSGSGSGTDYTLTISSLEPEDFAVYYCQQWTSFPPTFGQGTKLEIK
200	0.02	100000	2.8	–	–	–	–	CP09E05/CP08E05 (antibody, IgG4, V domains shown, IgG4 (S241P), kappa) VH: EVQLLESGGGLVQPGGSLRLSCAASGFIFSSHGMSWVRQAPGKGLEWVATISSGGTYTYYPDSVKGRFTISRDNSKNTLYLQMNSLKAEDTAMYYCARHGFDYDAAWFAYWGQGTLVTVSS VL: EIVLTQSPATLSLSPGERATLSCRANSAVSYMYWYQQKPGQAPRPWIYLTSNRATGVPARFSGSGSGTDYTLTISSLEPEDFAVYYCQQWTTNPPTFGQGTKLEIK
